These results are taken from the array DNA melting data of Ke et al..

The data set is described as follows: melting temperature; melt of duplexes. Particulars: sodium 0.0675 M; strand 1 µM.
For “CGACGTGCCGTATGTGCTG+CAGCACATTTAGCACGTCG ((((((((...((((((((+))))))))...))))))))”, the Tm (in general, the temperature at the midpoint of the melting transition) is 48.4 °C.

On to “CGACGTGCCGTATGTGCTG+CAGCACATTGGGCACGTCG (((((((((..((((((((+))))))))..)))))))))”, for which the Tm worked out at 54.7 °C. Turning to “CGACGTGCAAAATGTGCTG+CAGCACATTTGGCACGTCG ((((((((.((((((((((+)))))))))).))))))))”, the Tm was found to be 57.6 °C. For “CGACGTGCGTTATGTGCTG+CAGCACATAGCGCACGTCG (((((((((.(((((((((+))))))))).)))))))))”, the Tm was 58.3 °C. Consider “CGACGTGCACAATGTGCTG+CAGCACATGAAGCACGTCG ((((((((...((((((((+))))))))...))))))))”, for which the Tm turned out to be 49.9 °C. Turning to “CGACGTGCGAGATGTGCTG+CAGCACATCCGGCACGTCG ((((((((..(((((((((+)))))))))..))))))))”, the Tm turned out to be 55.7 °C. As for “CGACGTGCTCGATGTGCTG+CAGCACATTATGCACGTCG ((((((((...((((((((+))))))))...))))))))”, the Tm was determined as 49.6 °C.

For “CGACGTGCCCGATGTGCTG+CAGCACATCCTGCACGTCG ((((((((..(((((((((+)))))))))..))))))))”, the Tm was found to be 52.5 °C. The same measure for “CGACGTGCAAGATGTGCTG+CAGCACATCCGGCACGTCG ((((((((..(((((((((+)))))))))..))))))))”: 54.9 °C; for “CGACGTGCGCAATGTGCTG+CAGCACATTTGGCACGTCG ((((((((..(((((((((+)))))))))..))))))))”: 52.5 °C. Consider “CGACGTGCAAAATGTGCTG+CAGCACATCTTGCACGTCG ((((((((((.((((((((+)))))))).))))))))))”, for which the Tm is 54 °C. “CGACGTGCGTGATGTGCTG+CAGCACATCCTGCACGTCG ((((((((..(((((((((+)))))))))..))))))))”: the midpoint of thermal melting (Tm) worked out at 55.6 °C.

“CGACGTGCTCGATGTGCTG+CAGCACATACTGCACGTCG ((((((((...((((((((+))))))))...))))))))”: the Tm is 49 °C. For “CGACGTGCACCATGTGCTG+CAGCACATCTGGCACGTCG ((((((((...((((((((+))))))))...))))))))”, the melting temperature (Tm) turned out to be 43.7 °C.

Turning to “CGACGTGCGGGATGTGCTG+CAGCACATCGGGCACGTCG ((((((((..(((((((((+)))))))))..))))))))”, the Tm stood at 56.1 °C.

In the case of “CGACGTGCTGTATGTGCTG+CAGCACATGCTGCACGTCG ((((((((.(.((((((((+)))))))).).))))))))”, the melting temperature (Tm) turned out to be 54.1 °C. As for “CGACGTGCGCAATGTGCTG+CAGCACATAGCGCACGTCG ((((((((((.((((((((+)))))))).))))))))))”, the Tm was found to be 61.2 °C. Take “CGACGTGCCAAATGTGCTG+CAGCACATCAGGCACGTCG (((((((((..((((((((+))))))))..)))))))))”: the midpoint of thermal melting (Tm) is 54.2 °C. With “CGACGTGCTGCATGTGCTG+CAGCACATTACGCACGTCG ((((((((...((((((((+))))))))...))))))))”, the Tm was found to be 48.2 °C.

Regarding “CGACGTGCTATATGTGCTG+CAGCACATTCTGCACGTCG ((((((((...((((((((+))))))))...))))))))”, the Tm is 49 °C. Consider “CGACGTGCGAGATGTGCTG+CAGCACATATGGCACGTCG ((((((((.(.((((((((+)))))))).).))))))))”, for which the Tm stood at 53.3 °C. The same measure for “CGACGTGCGTTATGTGCTG+CAGCACATCCCGCACGTCG (((((((((..((((((((+))))))))..)))))))))”: 51.7 °C. Turning to “CGACGTGCATCATGTGCTG+CAGCACATCACGCACGTCG ((((((((.(.((((((((+)))))))).).))))))))”, the Tm is 46.6 °C. Consider “CGACGTGCTAGATGTGCTG+CAGCACATGACGCACGTCG ((((((((...((((((((+))))))))...))))))))”, for which the Tm stood at 48.1 °C. As for “CGACGTGCGAGATGTGCTG+CAGCACATAAGGCACGTCG ((((((((...((((((((+))))))))...))))))))”, the Tm came out at 51.1 °C.

As for “CGACGTGCAATATGTGCTG+CAGCACATGGCGCACGTCG ((((((((...((((((((+))))))))...))))))))”, the Tm was found to be 50.5 °C. As to “CGACGTGCTCCATGTGCTG+CAGCACATCTCGCACGTCG ((((((((...((((((((+))))))))...))))))))”, the midpoint of thermal melting (Tm) came to 46.2 °C. As for “CGACGTGCCCAATGTGCTG+CAGCACATGCGGCACGTCG (((((((((..((((((((+))))))))..)))))))))”, the Tm was determined as 54.3 °C.

For “CGACGTGCCAAATGTGCTG+CAGCACATGCCGCACGTCG ((((((((...((((((((+))))))))...))))))))”, the midpoint of thermal melting (Tm) was 50.6 °C.

In the case of “CGACGTGCTCTATGTGCTG+CAGCACATCCTGCACGTCG ((((((((...((((((((+))))))))...))))))))”, the Tm is 47.8 °C.

As for “CGACGTGCCTTATGTGCTG+CAGCACATGCAGCACGTCG ((((((((...((((((((+))))))))...))))))))”, the Tm came to 49 °C. With “CGACGTGCTCGATGTGCTG+CAGCACATTACGCACGTCG ((((((((...((((((((+))))))))...))))))))”, the melting temperature (Tm) is 48.6 °C. Take “CGACGTGCCTTATGTGCTG+CAGCACATTTTGCACGTCG ((((((((...((((((((+))))))))...))))))))”: the Tm was found to be 47.9 °C. The same measure for “CGACGTGCAGCATGTGCTG+CAGCACATGTAGCACGTCG ((((((((..(((((((((+)))))))))..))))))))”: 54.4 °C. Regarding “CGACGTGCTATATGTGCTG+CAGCACATAATGCACGTCG ((((((((..(((((((((+)))))))))..))))))))”, the Tm is 53 °C. “CGACGTGCAGAATGTGCTG+CAGCACATTTCGCACGTCG ((((((((..(((((((((+)))))))))..))))))))”: the midpoint of thermal melting (Tm) worked out at 53.5 °C. As to “CGACGTGCTAAATGTGCTG+CAGCACATTGAGCACGTCG (((((((((.(((((((((+))))))))).)))))))))”, the Tm was 57.2 °C. For “CGACGTGCCTGATGTGCTG+CAGCACATGAAGCACGTCG ((((((((.(.((((((((+)))))))).).))))))))”, the Tm was found to be 49.8 °C. As to “CGACGTGCTGTATGTGCTG+CAGCACATCCAGCACGTCG ((((((((((.((((((((+)))))))).))))))))))”, the Tm was 55.5 °C. In the case of “CGACGTGCACAATGTGCTG+CAGCACATCGAGCACGTCG ((((((((.(.((((((((+)))))))).).))))))))”, the Tm came to 48.6 °C.

Regarding “CGACGTGCTTGATGTGCTG+CAGCACATCTAGCACGTCG (((((((((.(((((((((+))))))))).)))))))))”, the Tm was 58.6 °C.

Turning to “CGACGTGCGTAATGTGCTG+CAGCACATGTGGCACGTCG ((((((((...((((((((+))))))))...))))))))”, the Tm came out at 51.8 °C.

Turning to “CGACGTGCGGAATGTGCTG+CAGCACATCTCGCACGTCG (((((((((..((((((((+))))))))..)))))))))”, the Tm was found to be 55.3 °C. For “CGACGTGCGCAATGTGCTG+CAGCACATAGTGCACGTCG ((((((((.(.((((((((+)))))))).).))))))))”, the melting temperature (Tm) is 51.6 °C. For “CGACGTGCTTGATGTGCTG+CAGCACATCGAGCACGTCG (((((((((.(((((((((+))))))))).)))))))))”, the Tm is 60.6 °C. The same measure for “CGACGTGCCCCATGTGCTG+CAGCACATGAGGCACGTCG (((((((((.(((((((((+))))))))).)))))))))”: 59.6 °C. For “CGACGTGCGAGATGTGCTG+CAGCACATGAAGCACGTCG ((((((((...((((((((+))))))))...))))))))”, the Tm was found to be 55.4 °C. As to “CGACGTGCCAAATGTGCTG+CAGCACATTCTGCACGTCG ((((((((..(((((((((+)))))))))..))))))))”, the Tm stood at 51.5 °C. The same measure for “CGACGTGCCCAATGTGCTG+CAGCACATGTGGCACGTCG (((((((((..((((((((+))))))))..)))))))))”: 56.2 °C; for “CGACGTGCTCCATGTGCTG+CAGCACATATAGCACGTCG (((((((((..((((((((+))))))))..)))))))))”: 50.4 °C; for “CGACGTGCTCCATGTGCTG+CAGCACATTCGGCACGTCG ((((((((...((((((((+))))))))...))))))))”: 47.6 °C. Take “CGACGTGCCACATGTGCTG+CAGCACATGCGGCACGTCG (((((((((.(((((((((+))))))))).)))))))))”: the Tm came to 60.2 °C. For the substance “CGACGTGCGAAATGTGCTG+CAGCACATCGCGCACGTCG (((((((((..((((((((+))))))))..)))))))))”, the Tm came to 53.8 °C. The same measure for “CGACGTGCATCATGTGCTG+CAGCACATACGGCACGTCG ((((((((...((((((((+))))))))...))))))))”: 46.3 °C; for “CGACGTGCATAATGTGCTG+CAGCACATGCGGCACGTCG ((((((((...((((((((+))))))))...))))))))”: 48.7 °C. On to “CGACGTGCGGGATGTGCTG+CAGCACATCAGGCACGTCG ((((((((..(((((((((+)))))))))..))))))))”, for which the Tm came out at 56.2 °C.

For the substance “CGACGTGCTATATGTGCTG+CAGCACATGATGCACGTCG ((((((((...((((((((+))))))))...))))))))”, the midpoint of thermal melting (Tm) was found to be 51.9 °C. On to “CGACGTGCACAATGTGCTG+CAGCACATTTAGCACGTCG ((((((((..(((((((((+)))))))))..))))))))”, for which the Tm came out at 48.3 °C. The same measure for “CGACGTGCGCTATGTGCTG+CAGCACATCAAGCACGTCG ((((((((...((((((((+))))))))...))))))))”: 51.4 °C; for “CGACGTGCGGAATGTGCTG+CAGCACATCTGGCACGTCG ((((((((...((((((((+))))))))...))))))))”: 52.3 °C; for “CGACGTGCGTTATGTGCTG+CAGCACATCCAGCACGTCG ((((((((...((((((((+))))))))...))))))))”: 49.6 °C. For “CGACGTGCGAGATGTGCTG+CAGCACATCTCGCACGTCG (((((((((((((((((((+)))))))))))))))))))”, the Tm worked out at 66.5 °C. As for “CGACGTGCCGGATGTGCTG+CAGCACATTGCGCACGTCG ((((((((...((((((((+))))))))...))))))))”, the Tm amounted to 49.9 °C.

In the case of “CGACGTGCTGAATGTGCTG+CAGCACATTACGCACGTCG ((((((((..(((((((((+)))))))))..))))))))”, the Tm stood at 52.7 °C. The same measure for “CGACGTGCCTGATGTGCTG+CAGCACATCATGCACGTCG ((((((((.((((((((((+)))))))))).))))))))”: 56.9 °C; for “CGACGTGCCAGATGTGCTG+CAGCACATCCTGCACGTCG ((((((((..(((((((((+)))))))))..))))))))”: 54.3 °C.
